In patent US5512545:

Target: PDGF receptors (alpha and beta sub-units)

Mitogenesis ng/ml ([3H]thymidine uptake by Swiss 3T3 cells; activity read from the dose response curve of the PDGF-BB standard c-sis): 308 ng/mL
Substance: PDGF-B (naturally occurring, full length; product of Comparative Example A) (ligand)
